These results are taken from publication doi:10.1101/2024.01.05.574302 (bioRxiv, 2024).

B1: ASAP1 SH3 domain (aa. 1083-1147) (domain or fragment, mouse, UniProt Q9QWY8 1083-1147, looked up)
chain: GKNKVRRVKTIYDCQADNDDELTFIEGEVIIVTGEEDQEWWIGHIEGQPERKGVFPVSFVHILSD
B2: mouse ASAP2-SH3 (aa. 896-958) recombinant protein (domain or fragment, UniProt Q7SIG6 896-958, looked up)
chain: SKPKRVKALYNCVADNPDELTFSEGDVIIVDGEEDQEWWIGHIDGEPSRKGAFPVSFVHFIAD

Assay [1] concerns the target B1. As to the kind of experiment: ITC. In general terms: Isothermal titration calorimetry measures the heat released or taken up as one component is titrated into another.
The target in the next assay is T1, gAnkB aa. 1477-1792 (human, UniProt Q01484 1477-1792).
T1 sequence (looked up): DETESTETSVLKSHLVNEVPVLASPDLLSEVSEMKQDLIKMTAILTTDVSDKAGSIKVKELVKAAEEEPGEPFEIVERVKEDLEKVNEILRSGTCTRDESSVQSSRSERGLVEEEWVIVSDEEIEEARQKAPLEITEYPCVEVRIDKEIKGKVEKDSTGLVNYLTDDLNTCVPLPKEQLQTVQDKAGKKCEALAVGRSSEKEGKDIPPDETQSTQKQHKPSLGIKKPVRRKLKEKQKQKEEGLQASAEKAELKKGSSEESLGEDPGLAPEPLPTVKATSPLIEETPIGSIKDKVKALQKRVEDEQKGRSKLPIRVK
As to the kind of experiment: ITC.

A word on the Kd: it is the constant that tells how readily two partners part at equilibrium. Low readings indicate a tighter complex, high ones a looser complex. “Clasp1 (from UniProt Q7Z460 1-1538) (natural protein)”: the Kd in assay [1] was 8900 nM. In other words, the single-digit micromolar range.

In turn, B1 showed a Kd in the assay with gAnkB aa. 1477-1792 of about 140 nM.

Molecule GIKKPVRRKLKE (peptide, UniProt Q01484 1699-1710, looked up) [gAnkB peptide (aa. 1699-1710)] registered a Kd in assay [1] of about 140 nM.

Turning to GIKKPVERKLKE (peptide, UniProt Q01484 1699-1710, looked up) [gAnkB peptide R1705E], the “fold weakening of binding against the wild-type gAnkB peptide” value in assay [1] is about 125 fold.

As to GIKKGVRRKLKE (peptide, UniProt Q01484 1699-1710, looked up) [gAnkB peptide P1703G], in assay [1], the “fold decrease of affinity against the wild-type gAnkB peptide” value is about 3 fold.

For the molecule GIKEPVRRKLKE (peptide, UniProt Q01484 1699-1710, looked up) [gAnkB peptide K1702E], the “fold weakening of binding against the wild-type gAnkB peptide” value in assay [1] is about 120 fold.

Take B2: the Kd in the assay with gAnkB aa. 1477-1792 is about 68 nM.
